The source of these data is patent publication US20220411483A1 (Chugai, published 2022).

Substitutions are numbered along the chain they refer to.

B1: IL6R-P769/IL6R-L (antibody, human IgG1, kappa)
heavy: QVQLQESGPGLVKPSETLSLTCAVSGHSISHDHAWSWVRQPPGEGLEWIGFISYSGITNYNPSLQGRVTISRDNSKNTLYLQMNSLRAEDTAVYYCARSLARTTAMDYWGEGTLVTVSSASTKGPSVFPLAPSSKSTSGGTAALGCLVKDYFPEPVTVSWNSGALTSGVHTFPAVLQSSGLYSLSSVVTVPSSSLGTQTYICNVNHKPSNTKVDKKVEPKSCDKTHTCPPCPAPELLGGDSVFLFPPKPKDTLMISRTPEVTCVVIDVSHEDGEVKFNWYVDGVEVHNAKTKPREEQYNSTYRVVSVLTVLHQDWLNGKEYKCKVSNKALPAPIEKTISKAKGQPREPQVYTLPPSRDELTKNQVSLTCLVKGFYPSDIAVEWESNGQPENNYKTTPPVLDSDGSFFLYSKLTVDKSRWQQGNVFSCSVMHEALHNHYTQKSLSLSP
light: not shown
B2: IL6R-P780/IL6R-L (antibody, human IgG1, kappa)
heavy: B1 heavy with S269A, H270E, K324E
light: not shown
B3: IL6R-P776/IL6R-L (antibody, human IgG1, kappa)
heavy: B1 heavy with I266V, K324E
light: not shown
B4: IL6R-P782/IL6R-L (antibody, human IgG1, kappa)
heavy: B1 heavy with E235D, I266V, G273P, A329G, A332S, P333S
light: not shown
B5: IL6R-P770/IL6R-L (antibody, human IgG1, kappa)
heavy: B1 heavy with A329G, A332S, P333S
light: not shown
B6: IL6R-P774/IL6R-L (antibody, human IgG1, kappa)
heavy: B1 heavy with I266V, S269A, H270E, K324E
light: not shown
B7: IL6R-P771/IL6R-L (antibody, human IgG1, kappa)
heavy: B1 heavy with K324A
light: not shown
B8: IL6R-P781/IL6R-L (antibody, human IgG1, kappa)
heavy: B1 heavy with I266V, G273P, S300A, A329G, A332S, P333S
light: not shown
B9: IL6R-P777/IL6R-L (antibody, human IgG1, kappa)
heavy: B1 heavy with E235D, S269A, H270E, K324A
light: not shown
B10: IL6R-P779/IL6R-L (antibody, human IgG1, kappa)
heavy: B1 heavy with S269A, H270E, K324A
light: not shown
B11: IL6R-P772/IL6R-L (antibody, human IgG1, kappa)
heavy: B1 heavy with K324E
light: not shown
B12: IL6R-P775/IL6R-L (antibody, human IgG1, kappa)
heavy: B1 heavy with I266V, K324A
light: not shown
B13: IL6R-P773/IL6R-L (antibody, human IgG1, kappa)
heavy: B1 heavy with I266V, S269A, H270E, K324A
light: not shown
B14: IL6R-P783/IL6R-L (antibody, human IgG1, kappa)
heavy: B1 heavy with G239D, I266V, G273P, A329G, A332S, P333S
light: not shown
B15: IL6R-P778/IL6R-L (antibody, human IgG1, kappa)
heavy: B1 heavy with E235D, S269A, H270E, K324E
light: not shown

T5 sequence (P08637 17-208 F176V): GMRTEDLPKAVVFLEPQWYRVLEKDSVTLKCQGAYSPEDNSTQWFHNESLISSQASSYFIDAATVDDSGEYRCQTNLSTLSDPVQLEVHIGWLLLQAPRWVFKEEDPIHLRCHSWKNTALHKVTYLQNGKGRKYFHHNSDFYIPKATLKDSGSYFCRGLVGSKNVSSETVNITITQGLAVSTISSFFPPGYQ

The target of the first experiment is T1, human FcγRIa extracellular domain with C-terminal His tag (human, UniProt P12314 16-292).
T1 construct: Whole entry named; also called FcgRIa
T1 sequence (P12314 16-292): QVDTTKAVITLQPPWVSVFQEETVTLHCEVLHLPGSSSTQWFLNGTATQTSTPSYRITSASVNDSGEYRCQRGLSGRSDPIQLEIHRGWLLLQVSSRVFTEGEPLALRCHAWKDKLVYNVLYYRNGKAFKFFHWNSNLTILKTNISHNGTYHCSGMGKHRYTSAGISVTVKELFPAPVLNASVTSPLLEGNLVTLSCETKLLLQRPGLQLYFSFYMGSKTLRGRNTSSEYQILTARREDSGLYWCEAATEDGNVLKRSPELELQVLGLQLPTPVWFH
Nature of the experiment: SPR, antibody captured, FcgR analyte. On the technique in general: SPR reads the build-up and loss of mass on a sensor chip optically.
B1: the affinity, expressed as Kd, was 12 nM.
Still for that read-out and setting: the same measure for B2: 2.1 nM; for B3: 5.2 nM; for B4: 30 nM.
B5 had a Kd of 15 nM.
With B6, the Kd was found to be 1.1 nM.
B7 yielded a dissociation constant Kd of 14 nM.
Still for that read-out and setting: the same measure for B8: 17 nM; for B9: 1.6 nM; for B10: 3.4 nM.
The molecule B11 displayed a Kd of 9.1 nM.
Same read-out and setting: the same measure for B12: 8.6 nM.
In turn, B13 had a Kd of 2.1 nM.
The same measure, in the same setting: the same measure for B14: 160 nM; for B15: 0.96 nM.

The target of a further experiment is T2, human FcγRIIa R type extracellular domain with C-terminal His tag (human, UniProt P12318 34-217).
T2 construct: extracellular domain; also called FcgRIIaR
T2 sequence (looked up): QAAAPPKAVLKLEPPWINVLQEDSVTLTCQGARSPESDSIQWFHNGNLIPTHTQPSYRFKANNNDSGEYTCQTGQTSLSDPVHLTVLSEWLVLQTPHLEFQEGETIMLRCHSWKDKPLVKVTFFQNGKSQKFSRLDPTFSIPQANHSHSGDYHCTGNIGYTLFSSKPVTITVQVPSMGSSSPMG
Kind of experiment: SPR, antibody captured, FcgR analyte.
B1: the affinity, expressed as Kd, was 2900 nM.
Regarding B2, the Kd is 1700 nM.
B3 displayed a dissociation constant Kd of 4000 nM.
As for B4, the Kd is 37000 nM.
Same read-out and setting: the same measure for B5: 3400 nM; for B6: 2000 nM.
On the same count and under the same terms, to B7 belongs 4300 nM; to B8, 11000 nM.
Same read-out and setting: the same measure for B9: 1900 nM; for B10: 2200 nM.
On to B11, for which binding was characterised by a dissociation constant (Kd) of 3100 nM.
The molecule B12 displayed a Kd of 5400 nM.
Molecule B13 registered a Kd of 2700 nM.
On the same count and under the same terms, the same measure for B14: 39000 nM; for B15: 1300 nM.

For the next experiment, the target named is T3, human FcγRIIb extracellular domain with C-terminal His tag (human, UniProt P31994 43-217).
T3 construct: extracellular domain; also called FcgRIIb
T3 sequence (looked up): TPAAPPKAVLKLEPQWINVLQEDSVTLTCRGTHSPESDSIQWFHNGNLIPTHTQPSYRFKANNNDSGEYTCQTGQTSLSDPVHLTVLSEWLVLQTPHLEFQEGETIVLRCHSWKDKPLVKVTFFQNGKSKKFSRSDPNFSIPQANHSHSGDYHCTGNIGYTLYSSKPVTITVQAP
Nature of the experiment: SPR, antibody captured, FcgR analyte.
In the case of B1, the Kd came to 74 nM.
Still for that read-out and setting: the same measure for B2: 34 nM; for B3: 280 nM; for B4: 3600 nM.
As to B5, the Kd worked out at 170 nM.
In turn, B6 had a Kd of 88 nM.
B7 returned a Kd of 140 nM.
Same read-out and setting: to B8 belongs 9000 nM.
On the same count and under the same terms, to B9 belongs 52 nM; to B10, 50 nM; to B11, 97 nM.
On the same count and under the same terms, the same measure for B12: 400 nM; for B13: 140 nM.
Molecule B14 gave a Kd of 3800 nM.
Still for that read-out and setting: to B15 belongs 25 nM.

A further experiment has as its target T1, human FcγRIa extracellular domain with …. Nature of the experiment: SPR, KD of IL6R-G1d/IL6R-L divided by KD of variant.
In the case of B1, the “Relative FcgRIa-binding Activity” value stood at 0.027.
With B2, the “Relative FcgRIa-binding Activity” value was found to be 0.152.
As for B3, the “Relative FcgRIa-binding Activity” value amounted to 0.062.
Regarding B4, the “Relative FcgRIa-binding Activity” value was found to be 0.011.
Still for that read-out and setting: to B5 belongs 0.021.
On the same count and under the same terms, to B6 belongs 0.291.
Consider B7, for which the “Relative FcgRIa-binding Activity” value stood at 0.023.
In the case of B8, the “Relative FcgRIa-binding Activity” value is 0.019.
On the same count and under the same terms, the same measure for B9: 0.2; for B10: 0.094; for B11: 0.035.
Same read-out and setting: to B12 belongs 0.037; to B13, 0.152; to B14, 0.002.
Turning to B15, the “Relative FcgRIa-binding Activity” value stood at 0.333.

For the next experiment, the target named is T2, human FcγRIIa R type extracellular …. The description is as above.
On to B1, for which the “Relative FcgRIIaR-binding Activity” value was 0.38.
Same read-out and setting: to B2 belongs 0.65.
Still for that read-out and setting: the same measure for B3: 0.28; for B4: 0.03; for B5: 0.32.
Consider B6, for which the “Relative FcgRIIaR-binding Activity” value stood at 0.55.
Consider B7, for which the “Relative FcgRIIaR-binding Activity” value was found to be 0.26.
As for B8, the “Relative FcgRIIaR-binding Activity” value stood at 0.1.
On to B9, for which the “Relative FcgRIIaR-binding Activity” value was found to be 0.58.
Same read-out and setting: to B10 belongs 0.5; to B11, 0.35.
Consider B12, for which the “Relative FcgRIIaR-binding Activity” value was determined as 0.2.
On to B13, for which the “Relative FcgRIIaR-binding Activity” value amounted to 0.41.
On the same count and under the same terms, to B14 belongs 0.03; to B15, 0.85.

A further experiment concerns the target T4, human FcγRIIa H type extracellular domain with C-terminal His tag (human, UniProt P12318 34-217).
T4 construct: extracellular domain; also called FcgRIIaH
T4 sequence (looked up): T2 sequence (looked up) with R134H
The experiment is described as above.
Turning to B1, the “Relative FcgRIIaH-binding Activity” value turned out to be 0.007.
B2: the “Relative FcgRIIaH-binding Activity” value came to 0.008.
Consider B3, for which the “Relative FcgRIIaH-binding Activity” value came out at 0.006.
Turning to B4, the “Relative FcgRIIaH-binding Activity” value is 0.005.
As to B5, the “Relative FcgRIIaH-binding Activity” value worked out at 0.006.
On the same count and under the same terms, to B6 belongs 0.008; to B7, 0.007; to B8, 0.003.
With B9, the “Relative FcgRIIaH-binding Activity” value is 0.008.
As to B10, the “Relative FcgRIIaH-binding Activity” value worked out at 0.009.
In the case of B11, the “Relative FcgRIIaH-binding Activity” value is 0.006.
Turning to B12, the “Relative FcgRIIaH-binding Activity” value came out at 0.005.
On to B13, for which the “Relative FcgRIIaH-binding Activity” value worked out at 0.006.
The same measure, in the same setting: the same measure for B14: 0.006.
Take B15: the “Relative FcgRIIaH-binding Activity” value was found to be 0.01.

For another experiment, the target named is T3, human FcγRIIb extracellular domain with …. Described as above.
For the molecule B1, the “Relative FcgRIIb-binding Activity” value was determined as 28.4.
In the case of B2, the “Relative FcgRIIb-binding Activity” value was determined as 61.8.
Take B3: the “Relative FcgRIIb-binding Activity” value was determined as 7.5.
For B4, the “Relative FcgRIIb-binding Activity” value is 0.6.
As to B5, the “Relative FcgRIIb-binding Activity” value came to 12.4.
In the case of B6, the “Relative FcgRIIb-binding Activity” value was 23.9.
Same read-out and setting: the same measure for B7: 15; for B8: 0.2; for B9: 40.4.
Same read-out and setting: the same measure for B10: 42; for B11: 21.6.
For B12, the “Relative FcgRIIb-binding Activity” value turned out to be 5.3.
For the molecule B13, the “Relative FcgRIIb-binding Activity” value was 15.
In the case of B14, the “Relative FcgRIIb-binding Activity” value is 0.6.
On the same count and under the same terms, the same measure for B15: 84.

The next experiment addresses T5, human FcγRIIIa V type extracellular domain with C-terminal His tag (human, UniProt P08637 17-208).
T5 construct: extracellular domain; also called FcgRIIIaV
Described as above.
On to B1, for which the “Relative FcgRIIIaV-binding Activity” value is 0.006.
Still for that read-out and setting: the same measure for B2: 0.008; for B3: 0.01.
Same read-out and setting: the same measure for B4: 0.006; for B5: 0.007.
On the same count and under the same terms, the same measure for B6: 0.012; for B7: 0.01.
Take B8: the “Relative FcgRIIIaV-binding Activity” value is 0.007.
The same measure, in the same setting: to B9 belongs 0.007; to B10, 0.011; to B11, 0.006.
For B12, the “Relative FcgRIIIaV-binding Activity” value amounted to 0.007.
For the molecule B13, the “Relative FcgRIIIaV-binding Activity” value was 0.009.
Still for that read-out and setting: the same measure for B14: 0.006; for B15: 0.009.

The Kd is the constant that tells how readily two partners part at equilibrium. A high value points to a looser complex.
